Laboratory results reported in patent US20130059773A1 (published 2013).

Target: T1, Proliferating Cell Nuclear Antigen (PCNA), wild type, cellular (cytosolic PCNA of human neutrophils) (human, UniProt P12004 1-261)
T1 construct: Endogenous protein in human neutrophil cytosol in the co-immunoprecipitations; Expressed from pcDNA3-PCNA in PLB985 cells in the caspase-9 activity row; also called cytoplasmic PCNA; PLB985-PCNA (overexpressed form)
Assay: co-immunoprecipitation from neutrophil cytosol, western blot
Protocol: Western blot analysis and co-immunoprecipitation experiments. […] Cytosol (500 mg) was mixed with 50 ml of protein G and Ab5 pAb and incubated for 30 min at 4° C. under shaking. The sample was loaded onto a column containing Sepharose-coated magnetic beads (Milteny), washed with a stringent washing buffer (50 mM Tris, 500 mM NaCl, 1% NP-40, 0.5% Triton X-100). The column was washed twice with this buffer, twice with the same buffer except that the NaCl was 300 mM and, finally, 5 times with a hyposaline buffer (20 mM Tris pH 7.5). The sample was eluted from the column with 30 ml 5× sample buffer and analyzed by Western blotting using different mAb to potential partners.

T1 sequence (P12004 whole entry): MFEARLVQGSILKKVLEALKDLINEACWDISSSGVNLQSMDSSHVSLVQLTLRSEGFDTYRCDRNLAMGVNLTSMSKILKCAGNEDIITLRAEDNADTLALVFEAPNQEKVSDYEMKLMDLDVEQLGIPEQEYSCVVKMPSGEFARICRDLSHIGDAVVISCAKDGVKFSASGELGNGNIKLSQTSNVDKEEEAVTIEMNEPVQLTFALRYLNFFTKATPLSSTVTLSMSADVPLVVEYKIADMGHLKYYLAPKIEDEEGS

B1: Bid (other, human, UniProt P55957 1-195, looked up)
chain: MDCEVNNGSSLRDECITNLLVFGFLQSCSDNSFRRELDALGHELPVLAPQWEGYDELQTDGNRSSHSRLGRIEADSESQEDIIRNIARHLAQVGDSMDRSIPPGLVNGLALQLRNTSRSEEDRNRDLATALEQLLQAYPRDMEKEKTMLVLALLLAKKVASHTPSLLRDVFHTTVNFINQNLRTYVRSLARNGMD
binding result: no binding
